The target in experiment [1] is full length human CD40 (uniprot # P25942-1) on the membrane of 293T-CD40 cells (human) (UniProt P25942). The experiment in a line: cell-based or functional assay.
Experiment [2] has as its target Human CD40-his protein (Acro biosystems, Cat # CD0-H5228) (human) (UniProt P25942). The experiment in a line: SPR, Biacore; human CD40-his.
The target in experiment [3] is full length human CD40 (uniprot # P25942-1) on the membrane of 293T-CD40 cells (human) (UniProt P25942). As to the kind of experiment: flow cytometry on 293T-CD40 cells.
In experiment [4] the target is cynomolgus monkey CD40-his protein (Acro biosystems, Cat # CD0-052H6) (cynomolgus monkey) (UniProt G7PG38). The experiment in a line: SPR, Biacore; cynomolgus CD40-his. (In general: Surface plasmon resonance follows binding to a sensor surface in real time, without labels.)
In experiment [5] the target is full length human CD40 (uniprot # P25942-1) on the membrane of 293T-CD40 cells (human) (UniProt P25942). The experiment in a line: flow cytometry on 293T-CD40 cells. This is another data set of the same source. Background: In flow cytometry, cells or beads pass a laser one at a time.
The target of experiment [6] is human CD40-Fc protein (amino acid residue 21-193 of SEQ ID NO: 67 linked to N-terminus of amino acid residue 99-330 of SEQ ID NO.: 24) (human). The experiment in a line: capture ELISA, biotin human CD40-Fc; mAb at 16 ng/mL. A general note: An ELISA detects its analyte on a solid surface through an enzyme-linked reagent.
For experiment [7] the target is unchanged. As to the kind of experiment: capture ELISA, biotin human CD40-Fc; mAb at 80 ng/mL.
Experiment [8] has the same target. The experiment in a line: capture ELISA, biotin human CD40-Fc; mAb at 3.2 ng/mL.
The target is the same in experiment [9]. As to the kind of experiment: capture ELISA, biotin human CD40-Fc; mAb at 400 ng/mL.
For experiment [10] the target is unchanged. As to the kind of experiment: capture ELISA, biotin human CD40-Fc; mAb at 0.64 ng/mL.
Experiment [11] shares this target. The experiment in a line: capture ELISA, biotin human CD40-Fc; mAb at 2000 ng/mL.
Experiment [12] has as its target Human CD40-his protein (Acro biosystems, Cat # CD0-H5228) (human) (UniProt P25942). The experiment in a line: SPR, Biacore; antibody captured, human CD40-his flowed.
Experiment [13] concerns the target human CD40-Fc protein (amino acid residue 21-193 of SEQ ID NO: 67 linked to N-terminus of amino acid residue 99-330 of SEQ ID NO.: 24) (human). As to the kind of experiment: capture ELISA, biotin human CD40-Fc; mAb at 10000 ng/mL.
The target is the same in experiment [14]. As to the kind of experiment: capture ELISA, biotin human CD40-Fc; mAb at 0 ng/mL (blank).
Experiment [15] addresses Human CD40-his protein (Acro biosystems, Cat # CD0-H5228) (human) (UniProt P25942). The experiment in a line: SPR, Biacore T200; antibody captured, antigen flowed; 1:1 Langmuir fit.
For experiment [16], the target named is human CD40-Fc protein (amino acid residue 21-193 of SEQ ID NO: 67 linked to N-terminus of amino acid residue 99-330 of SEQ ID NO.: 24) (human). As to the kind of experiment: capture ELISA; antibody captured, biotin-labeled human CD40-Fc in solution.
The target is the same in experiment [17]. The experiment is described as above. This is another data set of the same source.
For experiment [18] the target is unchanged. Described as above. This is another data set of the same source.
For experiment [19] the target is unchanged. The description is as above. This is another data set of the same source.
Experiment [20] concerns the target full length human CD40 (uniprot # P25942-1) on the membrane of 293T-CD40 cells (human) (UniProt P25942). As to the kind of experiment: flow cytometry on 293T-CD40 cells, PE-labeled secondary antibody, MFI.
The target is the same in experiment [21]. The description is as above. The source holds these as a separate data set.
The target is the same in experiment [22]. The description is as above. The source holds these as a separate data set.
The target of experiment [23] is human CD40-Fc protein (amino acid residue 21-193 of SEQ ID NO: 67 linked to N-terminus of amino acid residue 99-330 of SEQ ID NO.: 24) (human). The experiment in a line: capture ELISA (antibody captured on coated anti-IgG F(ab')2, biotin-labeled human CD40-Fc in solution, streptavidin-HRP, OD(450-630)).
Experiment [24] shares this target. As to the kind of experiment: capture ELISA (antibody captured on coated goat anti-human IgG F(ab')2, biotin-labeled human CD40-Fc in solution, streptavidin-HRP, OD(450-630)).
For experiment [25] the target is unchanged. The experiment in a line: ligand blocking ELISA: human CD40-Fc coated, antibody titrated, then biotin-labeled human CD40L-his (blocked ligand), streptavidin-HRP, OD(450-630).
Experiment [26] has the same target. As to the kind of experiment: capture ELISA (antibody captured on coated anti-IgG F(ab')2, biotin-labeled human CD40-Fc in solution, streptavidin-HRP, OD(450-630)). This is another data set of the same source.

Where “and” joins values, the source holds several entries; their conditions need not be identical. Equal entries are not always repeated. Where two headings read alike, the source gives them in different places.

BM1 (Dacetuzumab, Genentech Inc) (antibody), sequence (VH): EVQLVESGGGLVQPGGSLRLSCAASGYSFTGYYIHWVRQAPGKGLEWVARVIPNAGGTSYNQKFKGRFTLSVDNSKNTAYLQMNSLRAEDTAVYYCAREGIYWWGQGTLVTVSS
BM1 (Dacetuzumab, Genentech Inc) (antibody), sequence (VL): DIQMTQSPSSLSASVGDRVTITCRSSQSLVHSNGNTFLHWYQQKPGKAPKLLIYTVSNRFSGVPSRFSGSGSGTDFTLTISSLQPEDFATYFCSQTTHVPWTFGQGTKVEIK
human CD40-Fc protein (amino acid residue 21-193 of SEQ ID NO: 67 linked to N-terminus of amino acid residue 99-330 of SEQ ID NO.: 24) (human), sequence (chain, as listed by the source): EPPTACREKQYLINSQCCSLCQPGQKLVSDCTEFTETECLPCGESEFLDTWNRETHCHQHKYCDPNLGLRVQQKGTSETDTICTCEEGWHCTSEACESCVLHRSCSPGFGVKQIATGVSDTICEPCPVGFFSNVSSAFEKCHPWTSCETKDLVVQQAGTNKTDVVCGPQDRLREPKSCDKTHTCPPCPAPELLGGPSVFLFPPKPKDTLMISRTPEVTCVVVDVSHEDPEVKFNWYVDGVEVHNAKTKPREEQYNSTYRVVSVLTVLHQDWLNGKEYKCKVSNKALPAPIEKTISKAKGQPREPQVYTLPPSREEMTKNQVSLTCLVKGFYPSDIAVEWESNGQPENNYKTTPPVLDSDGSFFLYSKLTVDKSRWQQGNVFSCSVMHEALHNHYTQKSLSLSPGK
BM2 (Selicrelumab, Abgenix) (antibody), sequence (VH): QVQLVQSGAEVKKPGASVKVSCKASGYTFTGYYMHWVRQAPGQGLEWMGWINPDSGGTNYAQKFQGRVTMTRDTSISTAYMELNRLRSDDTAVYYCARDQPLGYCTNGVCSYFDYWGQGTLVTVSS
BM2 (Selicrelumab, Abgenix) (antibody), sequence (VL): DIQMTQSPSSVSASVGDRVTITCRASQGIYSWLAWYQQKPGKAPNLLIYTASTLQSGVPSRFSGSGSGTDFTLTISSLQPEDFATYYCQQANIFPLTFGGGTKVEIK
Human CD40-his protein (Acro biosystems, Cat # CD0-H5228) (human), sequence (P25942 21-193 limits assumed): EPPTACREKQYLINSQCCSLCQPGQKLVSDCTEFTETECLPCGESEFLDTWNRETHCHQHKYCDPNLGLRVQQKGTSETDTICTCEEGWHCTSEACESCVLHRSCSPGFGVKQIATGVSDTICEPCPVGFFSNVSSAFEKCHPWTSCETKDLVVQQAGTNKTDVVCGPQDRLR
full length human CD40 (uniprot # P25942-1) on the membrane of 293T-CD40 cells (human), sequence (P25942 21-277 limits assumed): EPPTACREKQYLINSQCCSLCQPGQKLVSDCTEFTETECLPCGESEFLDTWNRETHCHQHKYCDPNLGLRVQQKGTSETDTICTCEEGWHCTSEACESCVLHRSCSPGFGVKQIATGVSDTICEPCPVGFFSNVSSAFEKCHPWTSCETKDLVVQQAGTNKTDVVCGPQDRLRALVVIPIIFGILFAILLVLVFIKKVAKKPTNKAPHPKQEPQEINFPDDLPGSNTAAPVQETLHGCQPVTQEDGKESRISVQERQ
cynomolgus monkey CD40-his protein (Acro biosystems, Cat # CD0-052H6) (cynomolgus monkey), sequence (G7PG38 entry or part of it limits assumed): as the sequence (P25942 21-193 limits assumed) above, with G43S, H56R, R70Q, W89L, A95S, L101P, S106L, H142R, L172Q counted along it

As to “BM1 (Dacetuzumab, Genentech Inc) (antibody)”, the Cell-based Reporter assay (EC50, nM) in experiment [1] was 4.39 nM and 4.81 nM. This substance registered a cell based functional assay (EC50, nM) in experiment [1] of 4.16 nM. Moreover, the Kd in experiment [2] is 14.1 nM; in experiment [4] it was 5.85 nM; in experiment [12], 26.3 nM; in experiment [15], 11.1 nM. Also, the EC50 in experiment [3] is 0.975 nM and 0.886 nM; in experiment [5], 1.3 nM; in experiment [16] it was 0.434 nM; in experiment [17] it was 0.33 nM; in [18], 0.000501 µg/mL; in experiment [19], 0.335 nM. Further, the absorbance at 450 nm in [6] was 0.291 OD450; in [7], 1.02 OD450; in [8], 0.077 OD450; in experiment [9] it was 1.83 OD450; in experiment [10], 0.036 OD450; in experiment [11], 1.87 OD450. Further, the absorbance at 450 nm in experiment [13] came out at 1.99 OD450; in [14], 0.028 OD450. Further, the EC50 (read off the curve) worked out at 0.2 µg/mL in experiment [20]; 0.8 nM in experiment [21]; 1 nM in [22]; 0.4 nM in experiment [23]; 0.05 µg/mL in experiment [24]. This substance also returned an IC50 (read off the curve) in [25] of 1 µg/mL.

As for “Mouse IgG-NC (mouse control Ab) (antibody)”, the absorbance at 450 nm in [6] is 0.109 OD450; in experiment [7], 0.087 OD450; in experiment [8], 0.099 OD450; in experiment [9], 0.05 OD450; in experiment [10] it was 0.096 OD450; in experiment [11] it was 0.047 OD450. For the same substance, the values for the absorbance at 450 nm in experiment [13] and in experiment [14] were 0.044 OD450 and 0.125 OD450, respectively.

Turning to “hIgG (human immunoglobulin (pH4), for intravenous injection, Hualan Biological Engineering Inc.) (antibody)”, the absorbance at 450 nm in experiment [6] was 0.03 OD450; in experiment [7], 0.027 OD450; in experiment [8], 0.025 OD450; in experiment [9] it was 0.019 OD450; in experiment [10], 0.026 OD450; in [11], 0.018 OD450. Also, the absorbance at 450 nm in experiment [13] came out at 0.023 OD450; in [14], 0.026 OD450.

With BM2 (Selicrelumab, Abgenix) (antibody), the Cell-based Reporter assay (EC50, nM) in [1] is 7.01 nM and 4.9 nM. In experiment [1], the cell based functional assay (EC50, nM) was found to be 2.89 nM. Also, the Kd in experiment [2] came out at 12.2 nM; in experiment [4], 6.03 nM; in [12] it was 15.4 nM; in [15], 5.12 nM. In addition, the EC50 in [3] is 2.01 nM and 8.58 nM; in experiment [5], 2.11 nM; in [16], 1.25 nM; in [17] it was 0.72 nM; in [18] it was 0.000886 µg/mL; in experiment [19], 0.716 nM. Moreover, the absorbance at 450 nm worked out at 0.178 OD450 in experiment [6]; 0.669 OD450 in [7]; 0.052 OD450 in [8]; 1.42 OD450 in experiment [9]; 0.028 OD450 in experiment [10]; 1.63 OD450 in experiment [11]. The absorbance at 450 nm in [13] was 1.85 OD450; in [14], 0.029 OD450. For the same substance, the EC50 (read off the curve) turned out to be 0.3 µg/mL in experiment [20], 1 nM in experiment [23], 0.1 µg/mL in experiment [26] and 0.1 µg/mL in experiment [24].

The Kd is the concentration at which binding is half-saturated. What is called EC50 is the concentration giving half of the maximal effect. By EC50 (read off the curve) is commonly meant the concentration that produces a half-maximal response.

Values taken from patent US20200332017A1.
